T1: myc-tagged soluble neuropilin extracellular domain (myc-neuropilin^ex) (rat, UniProt Q9QWJ9 22-855)
T1 construct: Expressed in COS cells and used as culture medium
T1 sequence: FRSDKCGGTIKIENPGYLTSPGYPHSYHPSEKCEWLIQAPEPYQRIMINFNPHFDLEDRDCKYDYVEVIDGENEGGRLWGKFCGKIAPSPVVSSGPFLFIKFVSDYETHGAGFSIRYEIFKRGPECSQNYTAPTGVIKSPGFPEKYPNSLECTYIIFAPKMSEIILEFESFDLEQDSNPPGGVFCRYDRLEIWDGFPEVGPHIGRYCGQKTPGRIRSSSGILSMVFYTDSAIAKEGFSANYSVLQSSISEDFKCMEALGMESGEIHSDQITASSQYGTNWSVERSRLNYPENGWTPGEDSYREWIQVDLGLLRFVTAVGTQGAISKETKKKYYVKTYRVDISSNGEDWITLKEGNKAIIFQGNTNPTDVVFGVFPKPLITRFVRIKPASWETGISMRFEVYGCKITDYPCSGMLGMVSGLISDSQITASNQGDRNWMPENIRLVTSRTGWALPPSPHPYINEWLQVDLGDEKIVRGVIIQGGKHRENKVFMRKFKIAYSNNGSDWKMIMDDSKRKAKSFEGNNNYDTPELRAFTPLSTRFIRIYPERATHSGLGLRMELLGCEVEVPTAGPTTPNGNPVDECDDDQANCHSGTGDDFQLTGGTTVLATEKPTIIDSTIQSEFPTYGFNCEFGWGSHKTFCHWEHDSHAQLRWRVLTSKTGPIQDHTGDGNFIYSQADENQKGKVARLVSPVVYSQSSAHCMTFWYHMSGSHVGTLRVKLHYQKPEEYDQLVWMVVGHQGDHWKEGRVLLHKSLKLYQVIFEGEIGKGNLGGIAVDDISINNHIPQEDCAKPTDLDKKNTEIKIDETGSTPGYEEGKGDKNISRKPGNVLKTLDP


Assays:
[1] = target: Sema-AP binding sites / Sema III receptor(s) on NGF-dependent rat E14 DRG sensory neurons; assay: whole cell binding, Scatchard analysis, dissociated rat E14 DRG neurons
[2] = target: T2, rat neuropilin (neuropilin-1), full length (rat, UniProt Q9QWJ9 22-922); assay: whole cell binding, Scatchard analysis, COS cells transiently expressing neuropilin
T2 construct: Expressed transiently on COS cells from pMT21-neuropilin
Method: Because Coll-1 elicits biological effects at sub-nanomolar concentrations (Luo et al., 1993), we predicted that a bona fide Sema III receptor should bind to Sema III with high affinity. To determine the affinity of Sema-AP for neuropilin, neuropilin was transiently expressed in COS cells, and whole cell binding analyses were performed two days later (FIG. 3A). For comparison, the affinity of Sema-AP for its receptor(s) present on NGF-dependent sensory neurons prepared from dissociated E14 DRG was also determined (FIG. 3B). […] These binding affinities are similar to those recently described for netrins and their receptors (Keino-Masu et al., 1996; Leonardo et al., 1997) and Eph receptors and their ligands (Cheng and Flanagan, 1994; Monschau et al., 1997), and they are consistent with a role for neuropilin in Sema III-mediated growth cone collapse and in repulsive guidance of DRG neurons during neurodevelopment.
COS cells were transfected with 2 μg of pMT21-neuropilin, an expression vector encoding neuropilin, or either no DNA or the empty pMT21 expression vector using Lipofectamine (BRL), recovered in growth media, and then grown for 48 hours prior to binding analysis. Dissociated DRG neurons were cultured from E14 DRGs. […] Quantitiative cell surface binding was done essentially as described (Flanagan and Leder, 1990).

[3] = target: T2, rat neuropilin (neuropilin-1), full …; assay: AP staining of transfected COS cells
Method: FIGS. 1A to 1F. Sema-AP binds to neuropilin. COS cells were transfected with an expression vector encoding neuropilin (FIGS. 1A–1C) or the empty vector (FIG. 1D). After two days, cells were incubated with Sema-AP (FIG. 1A) or SEAP (FIG. 1B) and then processed for alkaline phosphatase activity, or cells were fixed and subjected to immunocytochemistry using anti-neuropilin IgG (FIGS. 1C and 1D). No neuropilin immunoreactivity was detected when COS cells expressing neuropilin were incubated with pre-immune IgG. (FIG. 1E) Anti-neuropilin immunoblot analysis of whole cell extracts prepared from COS cells that were transfected with the empty expression vector (lane 1) or an expression vector encoding neuropilin (lane 2). (FIG. 1F) Sema-AP binds directly to the extracellular domain of neuropilin. Either Sema-AP or SEAP was incubated with soluble myc-tagged neuropilin extracellular domain (myc-neuropilin^ex). Then, myc-neuropilin^ex was immunoprecipitated with an antibody directed against the myc epitope, and alkaline phosphatase activity in the immune complex was determined as described in the Examples. AP activity was measured as described in the Examples and is reported as OD$405$/second. Shown are the means +/− SEM of three independent experiments. Scale bar=25 μm.

[4] = target: T1, myc-tagged soluble neuropilin …; assay: co-immunoprecipitation with anti-myc antibody, AP activity
Method: Therefore, we next asked whether Sema-AP binds directly to neuropilin in a co-immunoprecipitation assay. For these experiments, an N-terminal myc-tagged neuropilin protein lacking the neuropilin transmembrane and intracellular domains (myc-neuropilin^ex) was used to assess whether the extracellular domain of neuropilin can directly interact with Sema III. Myc-neuropilin^ex was expressed in COS cells and the tissue culture medium was then incubated with either Sema-AP or SEAP alone. Upon precipitation of the myc-neuropilin^ex with a monoclonal antibody directed against the myc epitope, co-precipitation of Sema-AP was determined by the presence of AP activity in the immune complex (FIG. 1F). In contrast, no AP activity above background levels was detected in anti-myc immune complexes collected from samples in which myc-neuropilin was incubated with SEAP alone.
Co-precipitation of Sema-AP and the Secreted, Extracellular Domain of Neuropilin COS cell supernatant containing myc-neuropilin^ex, 293 EBNA cell supernatant containing SEAP, or 293 EBNA cell supernatant containing Sema-AP was filter-sterilized and concentrated. Samples containing equal amounts of control supernatants or supernatants containing myc-neuropilin^ex were mixed with samples containing either Sema-AP or SEAP (equal amounts of AP activity). These mixtures were incubated at room temperature for 2 hours. […]

Binder | binding sites per cell (binding sites per cell) [1] | Kd [2] [nM] | binding result [3] | binding result [4]
H-Sema III-alkaline phosphatase fusion protein (Sema-AP) (ligand, human, UniProt Q14563 21-771, looked up, Made in 293 EBNA cells from pCEP4 and used as supernatant; also called Sema III-AP; Sema III-secreted placental alkaline phosphatase fusion protein; not shown: secreted placental alkaline phosphatase of vector pAPtag-1 (Flanagan and Leder, 1990), C-terminal to Sema III; limits an) NYQNGKNNVPRLKLSYKEMLESNNVITFNGLANSSSYHTFLLDEERSRLYVGAKDHIFSFDLVNIKDFQKIVWPVSYTRRDECKWAGKDILKECANFIKVLKAYNQTHLYACGTGAFHPICTYIEIGHHPEDNIFKLENSHFENGRGKSPYDPKLLTASLLIDGELYSGTAADFMGRDFAIFRTLGHHHPIRTEQHDSRWLNDPKFISAHLISESDNPEDDKVYFFFRENAIDGEHSGKATHARIGQICKNDFGGHRSLVNKWTTFLKARLICSVPGPNGIDTHFDELQDVFLMNFKDPKNPVVYGVFTTSSNIFKGSAVCMYSMSDVRRVFLGPYAHRDGPNYQWVPYQGRVPYPRPGTCPSKTFGGFDSTKDLPDDVITFARSHPAMYNPVFPMNNRPIVIKTDVNYQFTQIVVDRVDAEDGQYDVMFIGTDVGTVLKVVSIPKETWYDLEEVLLEEMTVFREPTAISAMELSTKQQQLYIGSTAGVAQLPLHRCDIYGKACAECCLARDPYCAWDGSACSRYFPTAKRRTRRQDIRNGDPLTHCSDLHHDNHHGHSPEERIIYGVENSSTFLECSPKSQRALVYWQFQRRNEERKEEIRVDDHIIRTDQGLLLRSLQQKDSGNYLCHAVEHGFIQTLLKVTLEVIDTEHLEELLHKDDDGDGSKTKEMSNSMTPSQKVWYRDFMQLINHPNLNTMDEFCEQVWKRDRKQRRQRPGHTPGNSNKWKHLQENKKGRNRRTHEFERAPRSV | 20000 | ~1.5 |  | 
secreted placental alkaline phosphatase (SEAP) (enzyme, UniProt P05187 23-511, looked up, Control for the AP part of Sema-AP) IIPVEEENPDFWNREAAEALGAAKKLQPAQTAAKNLIIFLGDGMGVSTVTAARILKGQKKDKLGPEIPLAMDRFPYVALSKTYNVDKHVPDSGATATAYLCGVKGNFQTIGLSAAARFNQCNTTRGNEVISVMNRAKKAGKSVGVVTTTRVQHASPAGTYAHTVNRNWYSDADVPASARQEGCQDIATQLISNMDIDVILGGGRKYMFRMGTPDPEYPDDYSQGGTRLDGKNLVQEWLAKRQGARYVWNRTELMQASLDPSVTHLMGLFEPGDMKYEIHRDSTLDPSLMEMTEAALRLLSRNPRGFFLFVEGGRIDHGHHESRAYRALTETIMFDDAIERAGQLTSEEDTLSLVTADHSHVFSFGGYPLRGSSIFGLAPGKARDRKAYTVLLYGNGPGYVLKDGARPDVTESESGSPEYRQQSAVPLDEETHAGEDVAVFARGPQAHLVHGVQEQTFIAHVMAFAACLEPYTACDLAPPAGTTDAAHPG |  |  | no binding | no binding

Source: US6428965 (Johns Hopkins, dated 2002)
